Drawing on paper PMC9162458, “Divergent binding mode for a protozoan BRC repeat to RAD51” (Biochemical Journal, 2022), this text covers Kd for 3 molecules.

Ends that are not written are not given here.

The experiment deals with T1, LiRAD51^ATPase (Leishmania infantum RAD51 ATPase domain, residues 134–386) (Leishmania infantum).
T1 construct: RAD51 of Leishmania infantum, ATPase domain, residues 134-386; Vector pHAT2 (Addgene #112583); No removal of the His-tag is described; also called monomeric LiRAD51^ATPase; LiRAD51 ATPase domain; source: E. coli (T7Express or BL21(DE3)); purified (Ni-NTA, Superdex 75 SEC) for FP and ITC; in lysate for the pull-down
The experiment can be described thus: fluorescence polarisation; competition: 5 nM Fluor-NCys-LiBRC1 probe with 500 nM LiRAD51^ATPase, GB1-LiBRC repeats in serial dilutions; KD estimated from the fitted IC50; 50 mM Tris pH 8.0, 150 mM NaCl, 100 mM Li2SO4, 1% BSA, 0.1% Tween-20. The conditions noted are these: both partners purified.
Broadly, the Kd is the equilibrium constant for the complex coming apart. On to LVPTLFSTASGKPVTVRRESLQKVAERLGDLAAPDME (domain or fragment, not fully specified (N-terminus); also: GB1 fusion) [LiBRC1.2 (LiBRC1 with extended termini, GB1 fusion)], for which the Kd is 190 nM. On to AAAPPLVPTLFSTASGKPVTVRRESLQKVAERLGDLAA (domain or fragment, not fully specified (N-terminus); also: GB1 fusion) [LiBRC1.3 (LiBRC1 with extended termini, GB1 fusion)], for which the Kd was 310 nM. Regarding GB1-RVPTLFETGRGKAVTVQKRSLDKAEASMDSLEA-His8 (domain or fragment) [GB1-LiBRC2-His8 (BRC repeat 2 of Leishmania infantum BRCA2 fused to GB1)], the Kd was 13600 nM.
